Measured values published in patent US20240173407A1.

Target: Bicistronic receptor WU76UB CD3E_CD3E_2B4_CD3Z_CD3G_CD3G_OX40
Assay: cell-based or functional assay

Chain of Bicistronic receptor WU76UB CD3E_CD3E_2B4_CD3Z_CD3G_CD3G_OX40 (chain, as listed by the source limits assumed, form in doubt): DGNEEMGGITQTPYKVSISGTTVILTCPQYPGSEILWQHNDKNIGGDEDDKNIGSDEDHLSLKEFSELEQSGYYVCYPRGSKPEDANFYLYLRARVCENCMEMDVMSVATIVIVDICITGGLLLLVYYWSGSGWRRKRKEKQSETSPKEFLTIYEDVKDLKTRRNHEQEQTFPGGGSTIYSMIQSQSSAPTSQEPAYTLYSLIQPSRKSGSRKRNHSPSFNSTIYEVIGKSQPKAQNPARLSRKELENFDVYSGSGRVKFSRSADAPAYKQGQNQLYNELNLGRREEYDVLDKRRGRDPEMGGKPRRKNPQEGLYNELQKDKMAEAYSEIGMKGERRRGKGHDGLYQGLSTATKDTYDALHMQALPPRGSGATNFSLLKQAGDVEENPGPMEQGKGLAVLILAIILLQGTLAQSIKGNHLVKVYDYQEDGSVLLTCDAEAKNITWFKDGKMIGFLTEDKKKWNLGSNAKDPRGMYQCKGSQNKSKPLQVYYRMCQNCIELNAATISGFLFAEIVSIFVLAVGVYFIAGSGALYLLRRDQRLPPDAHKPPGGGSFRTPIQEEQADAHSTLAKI

fold change in p-S6 levels: 3 fold
Substance: Blinatumomab (bispecific antibody)
